Data published in paper PMC3688583, “Eubacterial SpoVG Homologs Constitute a New Family of Site-Specific DNA-Binding Proteins”.

How the values were obtained:
[1] = target: T1, SpoVGBb (Borrelia burgdorferi B31) (UniProt O51726); test: EMSA; conditions: 50 mM Tris-HCl pH 7.5, 1 mM DTT, 150 nM EDTA, 50 ng/ml poly dI-dC, phosphatase and protease inhibitors; about 20 C; protein stocks in 50 mM Tris-HCl, 25 mM …
T1 sequence: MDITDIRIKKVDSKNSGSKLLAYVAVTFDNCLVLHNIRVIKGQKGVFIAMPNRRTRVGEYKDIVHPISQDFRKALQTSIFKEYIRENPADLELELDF

[2] = target: T2, SpoVGSa (Staphylococcus aureus) (UniProt Q7A7B5); test: EMSA; conditions: 50 mM Tris-HCl pH 7.5, 1 mM DTT, 150 nM EDTA, 50 ng/ml poly dI-dC, phosphatase and protease inhibitors; about 20 C; protein stocks in 50 mM Tris-HCl, 25 mM …
T2 sequence: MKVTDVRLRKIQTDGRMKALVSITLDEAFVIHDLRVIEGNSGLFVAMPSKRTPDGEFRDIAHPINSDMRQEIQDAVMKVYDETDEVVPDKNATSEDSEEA

[3] = target: T2, SpoVGSa (Staphylococcus aureus); test: competition; conditions: 50 mM Tris-HCl pH 7.5, 1 mM DTT, 150 nM EDTA, 50 ng/ml poly dI-dC, phosphatase and protease inhibitors; about 20 C; protein stocks in 50 mM Tris-HCl, 25 mM …
SpoVGSa [4] = target: T3, SpoVGSa (Staphylococcus aureus, UniProt Q7A7B5 1-100); test: competition; 50-fold excess vs cap41; 50 mM Tris-HCl pH 7.5, 1 mM DTT, 150 nM EDTA, 50 ng/ml poly dI-dC, phosphatase and protease inhibitors; about 20 C; protein stocks in 50 mM Tris-HCl, 25 mM KCl, 10% glycerol, 0.01% Tween-20; conditions: protein: recombinant; tags: 6xHis (pET101)
T3 sequence: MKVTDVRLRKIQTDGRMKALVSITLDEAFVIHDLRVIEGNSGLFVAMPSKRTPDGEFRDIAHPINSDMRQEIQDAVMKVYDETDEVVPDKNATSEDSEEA

SpoVGBb = target: T4, SpoVGBb (Borrelia burgdorferi B31, UniProt O51726 1-97); test: EMSA; 200 nM protein; 50 mM Tris-HCl pH 7.5, 1 mM DTT, 150 nM EDTA, 50 ng/ml poly dI-dC, phosphatase and protease inhibitors; about 20 C; protein stocks in 50 mM Tris-HCl, 25 mM KCl, 10% glycerol, 0.01% Tween-20; conditions: protein: recombinant; tags: 6xHis (pET101); label: 5' biotin (strand 1); strands not exact complements (S12 has 3 extra nt)
T4 sequence: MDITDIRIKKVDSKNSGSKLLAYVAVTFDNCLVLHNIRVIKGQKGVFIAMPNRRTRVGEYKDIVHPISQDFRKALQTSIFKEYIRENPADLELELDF

SpoVGBb-Sa = SpoVGBb-Sa (Borrelia burgdorferi B31, UniProt O51726 1-97, Q69S;F71M;K73Q;A74E); test: as above; conditions: protein: recombinant; tags: 6xHis (pET101); label: 5' biotin (strand 1); strands not exact complements (S12 has 3 extra nt)
SpoVGSa K50A-R51A = SpoVGSa K50A-R51A (Staphylococcus aureus, UniProt Q7A7B5 1-100, K50A;R51A); test: EMSA; 1.5 uM protein; 50 mM Tris-HCl pH 7.5, 1 mM DTT, 150 nM EDTA, 50 ng/ml poly dI-dC, phosphatase and protease inhibitors; about 20 C; protein stocks in 50 mM Tris-HCl, 25 mM KCl, 10% glycerol, 0.01% Tween-20; conditions: protein: recombinant; tags: 6xHis (pET101); label: 5' biotin (strand 1); strands not exact complements (S12 has 3 extra nt)
SpoVGSa K50A = SpoVGSa K50A (Staphylococcus aureus, UniProt Q7A7B5 1-100, K50A); test: as above; conditions: protein: recombinant; tags: 6xHis (pET101); label: 5' biotin (strand 1); strands not exact complements (S12 has 3 extra nt)
SpoVGSa R51A = SpoVGSa R51A (Staphylococcus aureus, UniProt Q7A7B5 1-100, R51A); test: as above; conditions: protein: recombinant; tags: 6xHis (pET101); label: 5' biotin (strand 1); strands not exact complements (S12 has 3 extra nt)
SpoVGSa [5] = target: T3, SpoVGSa; test: EMSA; 50 mM Tris-HCl pH 7.5, 1 mM DTT, 150 nM EDTA, 50 ng/ml poly dI-dC, phosphatase and protease inhibitors; about 20 C; protein stocks in 50 mM Tris-HCl, 25 mM KCl, 10% glycerol, 0.01% Tween-20; conditions: protein: recombinant; tags: 6xHis (pET101); label: 5' biotin (strand 1); strands not exact complements (S12 has 3 extra nt)
SpoVGSa [6] = target: T3, SpoVGSa; test: competition; 25- and 50-fold excess vs cap41; 50 mM Tris-HCl pH 7.5, 1 mM DTT, 150 nM EDTA, 50 ng/ml poly dI-dC, phosphatase and protease inhibitors; about 20 C; protein stocks in 50 mM Tris-HCl, 25 mM KCl, 10% glycerol, 0.01% Tween-20; conditions: protein: recombinant; tags: 6xHis (pET101); blunt
SpoVGSa [7] = target: T3, SpoVGSa; test: competition; 10- to 50-fold excess vs cap41; 50 mM Tris-HCl pH 7.5, 1 mM DTT, 150 nM EDTA, 50 ng/ml poly dI-dC, phosphatase and protease inhibitors; about 20 C; protein stocks in 50 mM Tris-HCl, 25 mM KCl, 10% glycerol, 0.01% Tween-20; conditions: protein: recombinant; tags: 6xHis (pET101); blunt

Q: How did the binding [1] turn out when “GTTAATAGTTTGCCTAAGGAAAAAAGCGATATAAGTAGTACGACGGGGAAACCAGATAGTACAGGTTCTGTTGGT (double strand) [vlsE F27B-R10]” was run?
A: binds

Q: How did the Kd [2] turn out when cap5 5' non-coding DNA was run?
A: 316 nM

Q: How did the binding [3] turn out when “GGTGAATACTTATCATTTAAGTCCTTTGACACCTCATCTAAAATTCTAGGACTTTTAACAATTTCTTTATACGTATTTACAAGTTGAATATTACTTTGAACCTCTTGCGCCATAAACTGAGGATTGTCACCCTTAGTTTGATTCACTAAAATTTGAGTATTAGCTTGATATTTAGGTGATAAGACGAAAAATGTAACAATAGCGC (double strand) [cap5A ORF DNA]” was run?
A: binds more weakly

Q: For “CCTCCTGAATATTTTAAGTTTATCAAAACTTTTTAGGGACACTATTTTTTGAAAAAGTGCTCCTTACTCAAATAATATATAAATTATTAGTATATGTATATAGTTTTTTAAGTATTTTTAGTTTTTTTTAAATAAATATATTGAATATACCCATATATTTTTAATTAACCATTCATTTTTGTAATATAAATGTGTATACTAAAATTAAATTAAATACATAAAGG (double strand) [esxA 5' non-coding DNA]”, which binding [3] is on record?
A: binds

B1: competitor C (dsDNA)
DNA 1: AAAATAATGCGGTTTAAAAGTAATTAAT
DNA 2: ATTAATTACTTTTAAACCGCATTATTTT
Q: Does B1 bind (SpoVGSa [4])?
A: no binding

B2: cap41 (dsDNA)
DNA 1: GAGTATAATTATTTTTAATTTACATATAAATAAAAAGGCGAAAATAATGCGGTTTAAAAGTAATTAAT
DNA 2: ATTAATTACTTTTAAACCGCATTATTTTCGCCTTTTTATTTATATGTAAATTAAAAATAATTAATATACTC
Q: Does B2 bind (SpoVGBb)?
A: no binding

Q: Does B2 bind (SpoVGBb-Sa)?
A: binds

Q: Does B2 bind (SpoVGSa K50A-R51A)?
A: no binding

Q: Does B2 bind (SpoVGSa K50A)?
A: no binding

Q: Does B2 bind (SpoVGSa R51A)?
A: no binding

Q: Does B2 bind (SpoVGSa [5])?
A: binds

B3: competitor B (dsDNA)
DNA 1: TACATATAAATAAAAAGGCGAAAATAAT
DNA 2: ATTATTTTCGCCTTTTTATTTATATGTA
Q: Does B3 bind (SpoVGSa [4])?
A: no binding

B4: mutant competitor A (dsDNA)
DNA 1: GAGTAGCCGCCTTTTCGCCGGACATATA
DNA 2: TATATGTCCGGCGAAAAGGCGGCTACTC
Q: For B4, which binding signal (SpoVGSa [6]) is on record?
A: > 5 fold lower affinity than competitor A

B5: competitor A (dsDNA)
DNA 1: GAGTATAATTATTTTTAATTTACATATA
DNA 2: TATATGTAAATTAAAAATAATTATACTC
Q: Does B5 bind (SpoVGSa [7])?
A: binds
